What was measured:
Assay in all cases: purified protein
Conditions in all cases: phosphate-buffered saline 50 mM, pH 7.0, 37 °C
[1] = system: CC1=C(C(=O)O)N2C(=O)[C@@H](NC(=O)[C@H](N)C3=CCC=CC3)[C@H]2SC1
[2] = system: C[C@H]1[C@H](NC(=O)/C(=N\OC(C)(C)C(=O)O)c2csc(N)n2)C(=O)N1S(=O)(=O)O
[3] = system: CCN1CCN(C(=O)N[C@@H](C(=O)N[C@@H]2C(=O)N3C(C(=O)O)=C(CSc4nnnn4C)CS[C@H]23)c2ccc(O)cc2)C(=O)C1=O
[4] = system: CO/N=C(\C(=O)N[C@@H]1C(=O)N2C(C(=O)O)=C(CSc3nc(=O)c(=O)[nH]n3C)CS[C@H]12)c1csc(N)n1
[5] = system: C[C@@H](O)[C@H]1C(=O)N2C(C(=O)O)=C(S[C@@H]3CN[C@H](C(=O)N(C)C)C3)[C@H](C)[C@H]12
[6] = system: CO/N=C(\C(=O)N[C@@H]1C(=O)N2C(C(=O)O)=C(COC(C)=O)CS[C@H]12)c1csc(N)n1
[7] = system: Cc1onc(-c2ccccc2)c1C(=O)N[C@@H]1C(=O)N2[C@@H]1SC(C)(C)[C@@H]2C(=O)O
[8] = system: CC(C)(O/N=C(\C(=O)N[C@@H]1C(=O)N2C(C(=O)[O-])=C(C[n+]3ccccc3)CS[C@H]12)c1csc(N)n1)C(=O)O
[9] = system: CC(=O)OCC1=C(C(=O)O)N2C(=O)[C@@H](NC(=O)Cc3cccs3)[C@H]2SC1
[10] = system: Cc1nnc(SCC2=C(C(=O)O)N3C(=O)[C@@H](NC(=O)Cn4cnnn4)[C@H]3SC2)s1
[11] = system: CO/N=C(\C(=O)N[C@@H]1C(=O)N2C(C(=O)[O-])=C(C[N+]3(C)CCCC3)CS[C@H]12)c1csc(N)n1

**Q.** What does the source list for PAD-1 (Paramesorhizobium deserti)?
**A.** Km [1]: 347.9 µM; kcat [1]: 31.8 s⁻¹; kcat/Km [1]: 91300 M⁻¹ s⁻¹; Km [2]: 276.08 µM; kcat [2]: 39 s⁻¹; kcat/Km [2]: 141000 M⁻¹ s⁻¹; Km [3]: 47.80 µM; kcat [3]: 15.1 s⁻¹; kcat/Km [3]: 315000 M⁻¹ s⁻¹; Km [4]: 90.84 µM; kcat [4]: 16.3 s⁻¹; kcat/Km [4]: 179000 M⁻¹ s⁻¹; Km [5]: 389.69 µM; kcat [5]: 24.2 s⁻¹; kcat/Km [5]: 62200 M⁻¹ s⁻¹; Km [6]: 137.08 µM; kcat [6]: 20.1 s⁻¹; kcat/Km [6]: 146000 M⁻¹ s⁻¹; Km [7]: 383.96 µM; kcat [7]: 58.7 s⁻¹; kcat/Km [7]: 153000 M⁻¹ s⁻¹; Km [8]: 110.04 µM; kcat [8]: 12.1 s⁻¹; kcat/Km [8]: 110000 M⁻¹ s⁻¹; Km [9]: 91.59 µM; kcat [9]: 15.2 s⁻¹; kcat/Km [9]: 166000 M⁻¹ s⁻¹; Km [10]: 89.16 µM; kcat [10]: 22.6 s⁻¹; kcat/Km [10]: 253000 M⁻¹ s⁻¹; Km [11]: 108.40 µM; kcat [11]: 10.4 s⁻¹; kcat/Km [11]: 95900 M⁻¹ s⁻¹

— paper PMC5566211
